Assay results taken from the RNAGym collection of RNA variant scans (doi:10.1073/pnas.2313332121).

B1: TPR t1 (parent)
chain: GACCAAUCUGCCCUCAGAGCUCGAGAACAUCUUCGGAUGCAGAGGAGGCAGGCUUCGGUGGCGCGAUAGCGCCAACGUCCUCAACCUCCAAUGCAUCCCACCACAUGAUGAUGCCUGAAGAGCCUUGGUUUUUUG

Variants of: B1
Test: polymerase ribozyme fitness, log enrichment relative to wild type (log ratio); higher = more active; in vitro selection for triplet polymerase activity
Summary of the method: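 Fitness is a logarithmic measure of how a genotype enriched relative to the wild type, with replicate averages weighted by inverse variance. The logarithm uses base 2, and enrichment came from Illumina sequencing of input and output libraries. Those libraries were PCR-built, transcribed mutants of each subunit of a heterodimeric triplet polymerase ribozyme, passed through one triplicate in vitro selection round that included frozen incubation at −7 °C, gel excision of extended constructs and streptavidin-bead capture. Genotypes were kept only if they had ≥10 input reads and ≥1 read per output.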

Row | Variant | polymerase ribozyme fitness (log ratio)
1 | U9A G39C C99U | -2.83
2 | U9C U96A | 0.079
3 | U9C A27C C40G C72A | -3.22
4 | C8U C31U C53U | -4.36
5 | C8G U9G C22G | -3.24
6 | U9A C31G A83C G107C | -1.45
7 | C8U C11G G48C C56U C89U G117U | -1.01
8 | U9G A111U A118U G120A | -2.78
9 | C8U C62U C64A | -5.43
10 | U9A A27U G42U | -4.71
11 | C8G G44A U92A C97U | -2.59
12 | U9A C73U G117A | 0.559
13 | C8U C15A A66U A118U A121C | -0.152
14 | C8G G107U C123G | -2.76
15 | U9C G17A A18G G69U G113U | -4.32
16 | C8U G39C C79U G120U | 1.3
17 | U9A C56G | -0.125
18 | C8U C73U G120A | 1.89
19 | C8G G48A G128U | -2.01
20 | C8G G45A C56U C72U C94A C101A | -2.54
21 | C8U A29U C62U A83C C88G A119G | -2.75
22 | U9C G60U U109G C114G | -3.95
23 | U9C C31G U92A G93C C114A | -5.25
24 | U9C C70U G93A | 0.136

Row | Variant | polymerase ribozyme fitness (log ratio)
25 | U9A C115G | 1.95
26 | U9A C97G A105G C115U G117A | -7.76
27 | U9C U59C A84U C104A C114U | -4.8
28 | U9C G44A C79U C86U G120A | 0.952
29 | U9A A74G C104A C123A | -0.249
30 | C8G U32C A90C | -0.367
31 | C8U C72G A84U U87C U92G | -4.49
32 | U9A A26G C101G C104A G122A | -3.48
33 | U9A A91G | -0.793
34 | C8U C12A A84C U116C | 0.149
35 | C8U A41C C73A G122A | 0.223
36 | C8G G57A C73U U78A A91U | -1.7
37 | C8U G44A C104U | 0.0147
38 | C8U G48U A50U G69U C86U U96A | -1.23
39 | U9G C13G | 0.0659
40 | U9A G47U C97G C99U G120U U130C | -5.08
41 | C8U G71A C115U | -1.94
42 | U9C C11U G61A C88G | -0.498
43 | C8U C22G G39C A41G G63A A118U | -3.78
44 | U9A G36U G120U | 1.67
45 | C8U C22U G52U G60C | -4.56
46 | U9C G17U U32C C49U C72U A105G | -5.59
47 | C8U C15U C72G G120U | 1.39
48 | C8U G113A A121G | -0.604

Row | Variant | polymerase ribozyme fitness (log ratio)
49 | U9A U30C G44A G57U G60A | -4.18
50 | C8U U125A U130G | -0.351
51 | U9A C15A G45C A108G | -4.55
52 | C8U G45U U59C U92A | -4.17
53 | C8U A18C A41U A50G C72G C101U | -3.51
54 | U9C C72G | 0.104
55 | U9C C72U | 0.343
56 | C8U C12A G19U U59C G120A | -1.69
57 | C8U C72G U96G | -1.03
58 | C8G G52U C73A U92G | -2.91
59 | C8U G113C | -1.19
60 | C8G U38C G42A C56U C124A | -1.34
61 | C8U U21A C22U A27G C31G C56U G60A C86A U87G C115A A121C | -5.4
62 | C8U U9G G57A | -0.23
63 | U9C A43U C73U C79U A111G | -0.526
64 | U9A U14A C64U | 0.0854
65 | C8U U59A C94U A119U | -0.404
66 | U9C C13G C28G G45U G61A | -2.49
67 | C8U G60C | 0.253
68 | C8U A111C | 0.776
69 | U9G A41U U54A U78C | -1.59
70 | U9G A27U G39U A46U | -4
71 | U9G A46C G61A U87A G93C C115A U116C A119C | -3.51
72 | U9C C53U A83C | 0.688

Row | Variant | polymerase ribozyme fitness (log ratio)
73 | U9C A90G C115U U131C | 1.24
74 | C8G G10U G69U A95U C102A C114G U129G | -2.33
75 | C8U G51A | -1.3
76 | U9A U21G A41U G45A | -4.48
77 | C8U C88U A121C | 1.33
78 | U9A C12A G42U A46G C53G C70U U132A | -2.02
79 | U9A G19C A41U | -1.63
80 | C8U C22G U33A A50C G57U G120U | -4.54
81 | C8G G35A | -2.23
82 | U9C C56A | -0.0544
83 | U9C C56G | 0.559
84 | C8U C20U A37U A43U C72U A74U | -2.39
85 | C8U A43G C89G C98U G135U | -4.02
86 | U9A C73A C104U U130G G135C | 0.682
87 | U9C C53G C114U U116A C123A U130C | -7.66
88 | U9A C13G G61U | 0.255
89 | C8G G25A A26G C73U G128A | -4.47
90 | C8U C28U U116A | -3.54
91 | C8U A18U G57A C64U C94U | -4.97
92 | C8U C72U C82A A84C A111C | 0.264
93 | U9C C72U U78C A83U A90G A121G | 2.19
94 | C8U C12A G61A C79U | 0.0887
95 | U9G A16U C82U C88U A95U U130G | -0.874
96 | U9G C13U G17U U87C | -0.186

Row | Variant | polymerase ribozyme fitness (log ratio)
97 | U9A U33A G36U C89G C124A | -5.28
98 | U9A G10A C40A U78C G110U C123U | -2.19
99 | U9A G61U C89U U92A U129A | -3.6
100 | U9C A16G G57C G110C | -4.22
101 | U9C A29U G61A C88U C102U | -4.47
102 | U9C A16U C72G C88A A95C A111U | -6.59
103 | C8G U32C A66U | -0.651
104 | C8G G44A C101U | -0.462
105 | C8U C11U A29U C70A | -3.03
106 | C8U U96C | 0.939
107 | C8U C56G C80A | -1.69
108 | U9A G35A | -3.25
109 | U9A A18C G44A C70U G93C | -4.58
110 | U9C G69U A100U U112A C123U | 2.09
111 | C8U C72G G93A | -0.0349
112 | U9A A50C A91G U106C | -1.11
113 | C8U C72G | 0.517
114 | C8U A50U C104U C123U | 1.14
115 | U9A C72U G110C U130A | -4.28
116 | C8U G17U G36C G71U C82G | -4.44
117 | C8U U14A C72A C73U | -2.99
118 | C8G G39A | -0.708
119 | C8G G47U G57A C73A C85G U106A U133A | -4.51
120 | U9C C13U C53A U87C A100U | -0.242

Row | Variant | polymerase ribozyme fitness (log ratio)
121 | C8U G42U | -0.81
122 | U9G A50U A74C G113C | -3.6
123 | U9A C56A C82A C85A | -0.979
124 | C8G G44A G63U U125G | -2.03
125 | U9A A111U | -1.46
126 | U9C A43U | -0.741
127 | U9A A37C G63C | -0.708
128 | U9A C114A | 0.123
129 | U9G A18C G117C | 0.268
130 | C8U U55G G113C | -1.85
131 | C8U G44A C56A | -0.314
132 | C8G U96A | 0.0383
133 | U9A C12A A16C A26U G47U | -5.44
134 | C8U C72G U87G C94U G122A | -0.203
135 | C8G G36C A84U C115U G122U | -1.01
136 | C8G U14A G58C | -0.0186
137 | C8U U32C C62A G117U | -2.35
138 | U9C G48C C101A G117A | -1.58
139 | U9C A103C C104A | -2.12
140 | C8U G57U | -0.029
141 | C8U C13A A37C G61U U87G C102U | -1.74
142 | C8U C72G U92A C123A | -2.13
143 | C8G G57A G117A A119U G135U | -2.27
144 | C8U G48C G69U | 0.0683

Row | Variant | polymerase ribozyme fitness (log ratio)
145 | C8G G117A | 0.795
146 | U9G C11A G52A G57C U116G A121G | 0.971
147 | C8U C73U U112A | 1.84
148 | U9C U92A C114A | -1.69
149 | C8G U14G G61C A66C | -2.35
150 | U9C G63A | 0.19
151 | U9G C11G C94U | -4.64
152 | C8G G10U G42A G45C | -3.03
153 | U9C C53A C123G | 1.78
154 | C8U C12A G35U G45C C53G C104U | -6.79
155 | U9G A66U C80A C85U | -5.32
156 | U9C U78C | 0.403
157 | C8G U106G C114U | -1.28
158 | U9G A26U C72U | -2.22
159 | C8U C64A U78C C123U | -4.51
160 | U9A C34A C72A C102U C123A G128U | -1.61
161 | U9C G71U U78G U132A | -0.414
162 | C8G G45A G52U C53A C98U G110A G120C U129A | -6.11
163 | U9A G61U C85U G117U | 0.0255
164 | C8G G120A | 1.78
165 | C8G G120C | 2.34
166 | U9A C13G A16U A41U | -1.62
167 | C8G U30C G60C | -4.49
